Measured values from the nanobody polyreactivity screen of Harvey et al. (2022).

Test: yeast display, Sf9 membrane polyspecificity reagent, FACS + sequencing; frameworks hold sequencing errors
How it was run: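 A nanobody's polyreactivity label depends on the gate it was sorted from. Yeast display cells were stained with 10% biotinylated, detergent-solubilized Sf9 membrane reagent for 1 hour at 4 °C, enriched on streptavidin microbeads and sorted by FACS. The low and high (top ~1%) gates were set on anti-HA fluorescence for expression and streptavidin fluorescence for reagent binding.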

Sequence	polyreactivity (PSR sort gate)
QVQLVESGGGLVQAGGSLRLSCAASGFITWGNAMGWYRQAPGKERELVAAISWRDARTYYADSVKGRFTISRDNAKNTVYLQMNSLKPEDTAVYYCNAVTAYVSRNLRGYRWFDYWGQGTQVTVSS	low polyreactivity
QVQLVESGGGLVQAGGSLRLSCAASGFIVGHYAMGWYRQAPGQEREFVAAITSGGTTYYADSVKGRFTISRDNAKNTVYLQMNSLKPEDTAVYYCNADDAFRYYWLGLYDYWGQGTQVTVSS	low polyreactivity
QVQLVESGGGLVQAGGSLRLSCAASGFIVTANGMGWDRQAPGQERELVASISRRGGSTYYADSVKGRFTISRDNAKNTVYLQMNSLKPEDTAVYYCAARFYQEWGQGTQVTVSS	high polyreactivity
QVQLVESGGGLVQAGGSLRLSCAASGFIYEDYAMGWYRQAPGKERELVAAITWRGGRTYYADCVKGRYTISRDNAKNTVYLQMNSLKPEDTAVYYCRPLVYSYASRYGYWGQGTQVTVLS	high polyreactivity
QVQLVESGGGLVQAGGSLRLSCAASGFIYFDYAMGWDRQAPGKERELVAGISRSGDSTYYADSVKGRFTISRDNAKNTVYLQMNSLKPEDTGVFYCAVVTYRSKAHSSRNGKYYYWGQGTHVTVSS	low polyreactivity
QVQLVESGGGLVQAGGSLRLSCAASGFIYGWYAMGWYRQAPGKERELVAAINWSGTSTYYADSVKGRFTISRDNAKNTVYLQMNSLKPEDTAVYYCAAYFQKLPTTGYDYWGQGTQVTVSS	low polyreactivity
QVQLVESGGGLVQAGGSLRLSCAASGFIYNKYTMGWYRQAPGKERELVAAIRSSGGSTYYADSVKGRFTISRDNAKNTVYLQMNSLKPEDTAVYYCNALPYQVWKRYSWGQGTQVTVSS	high polyreactivity
QVQLVESGGGLVQAGGSLRLSCAASGFIYPYYAMGCYIQAPGKETELVAGISKSGGRTTYADSVKGRFTISRDNAKNTVYLQMNSLKPEDTAVYYCAAVYRAFPIYEDDYWGQGTQVTVSS	high polyreactivity
QVQLVESGGGLVQAGGSLRLSCAASGFIYSGYAIGCYRQAPAKERELVDTNSGSGGSTYYADSVKGRFTISRDNAKNTVYLKMNSLKTEDTAVYYCAARQRGGYGYWGQGTQVTESS	high polyreactivity
QVQLVESGGGLVQAGGSLRLSCAASGFIYSSYAMGWYRQAPGKERELVAAITRNGGSTYYADSVKGRFTISRDNAKNTVYLQMNSLKPEDTAVYYCAAPRWRGVGRFDYWGQGSQVTVSS	high polyreactivity
QVQLVESGGGLVQAGGSLRLSCAASGFIYYSYTMGWYRQAPGKERELVATISSNGGRTYYADSVKGRYTISRDNAKNTVYLQMNSLKPEDTAVYYCATDVPHGYYWSYGDYYWGQRTQVTVSS	low polyreactivity
QVQLVESGGGLVQAGGSLRLSCAASGFLFDFYPLGWYRPAPGKDRELVAAITNGGSTYYADSVKGRFTISRDNAKNTDYLQMNSLKPEDTAVYYCAAYYRSRHHGYDSCGQGTQVTVSS	low polyreactivity
QVQLVESGGGLVQAGGSLRLSCAASGFMFDDNAMGWYRQAPRKERELVAAITSGGGSTYYADSVKGRFTISRDYAKITVYLLMNSLKPEDTAVYYCAAGGYPSLLHDYDYWGQGTQVTVSS	low polyreactivity
QVQLVESGGGLVQAGGSLRLSCAASGFNFGNYAMGWYRQAPGKERELVAVISRGGSTYYADSVKGRFTISRDYAKNSVYLQMNSLKPEDTAVYFCAARAFPPYGYDYWGQGTQVTVSS	high polyreactivity
QVQLVESGGGLVQAGGSLRLSCAASGFNFNYNAMGRYREAPGKERELVAAISTSGSSTYYADSVKGRFTISRDNAKNTVYLQMNSLKPEDTAVYYCAARRSTRHRYRVGTCYKYDYWGQGTQVTVSS	high polyreactivity
QVQLVESGGGLVQAGGSLRLSCAASGFNFPDYAMGWYRQAPGKETELVAAITSAGGRTYYADSVKGRFTISRDNAKNTVYLQMNSLKPEDTAVFYCNALTTKGTGTYNGGYWGEGTQVTVSS	high polyreactivity
QVQLVESGGGLVQAGGSLRLSCAASGFNFRTNAMGWYRQAPGKERELVAAISRSGNTYYADSVKGRFTISRDNAKNTVYLQMNSLKPEDTAVYYCAAQSVRWYSSFKYYYWRQGTQVTVSS	high polyreactivity
QVQLVESGGGLVQAGGSLRLSCAASGFNSHFYAMGSYRQAPGKEREFVDRISYSGGSTYYADSVKGRFTISRDNAKNTVYLQMNSLKPEDTAVYFCAADKHYFRHFGSWGQGTQVTVSS	low polyreactivity
QVQLVESGGGLVQAGGSLRLSCAASGFPIHAYVMGWYRQAPGKERELVAAISSGGSTYYADSVKGRFTISRDNAKKTVYLQMNSLKPEDTAVYYCAAGYPYYWHFDYWGQGTQVTVSS	low polyreactivity
QVQLVESGGGLVQAGGSLRLSCAASGFQYGMGWYRQAPGKERELVAAISRDGSTNYADSVKGRFTISRDNAKNTVYLQMNSLKPEDTAVYYCAVDFYFLYGWGQGTQVTVSS	low polyreactivity
QVQLVESGGGLVQAGGSLRLSCAASGFSFKLYAMGWYRQAPGKEREFVAAINRSGGSTYYADSVKGRFTISRDNAKNTVYLQMNSLKPEDTAVYYCAALAYTLYDYWGQGTQVTVSS	high polyreactivity
QVQLVESGGGLVQAGGSLRLSCAASGFSFKSYAMGWYRQAPGKERELVAAISRGTSTKYADSVKGRFTISRDNAKNTVYLQMNSLKPEDTAVYNCAALFPTSDLRLRYYRYDYWGQGTQVTVSS	low polyreactivity

Sequence	polyreactivity (PSR sort gate)
QVQLVESGGGLVQAGGSLRLSCAASGFSFSRYAMGWYRQAPGKEREFVASITRRGGSTYYADSVKGRFTISRDNAKNTVYLQMNSLKPEDTAVYYCNAGYTWGRFEYWGQGTQVTVSS	high polyreactivity
QVQLVESGGGLVQAGGSLRLSCAASGFSFTSNAMAWYRQAPGKERELVAAITTRGGSTYYADSVKGRFTLSRDNAKNTVDLPMNSLKPEDTSVYYCAARYSYWGLLRYDYWGQGTQVTVSS	high polyreactivity
QVQLVESGGGLVQAGGSLRLSCAASGFTCASNDMGWSRQAPGKERELVAAITKGGGRTYYADSVKGRFTISRDNAKNTVYLQMNSLKPEDTAVYYCAARQLIKYDYWGPGTQVTVSS	low polyreactivity
QVQLVESGGGLVQAGGSLRLSCAASGFTCGSYTMGWYRQAPGKERELVAVISRSGSSTYYADSVKGRFTISRDNAKNTVYLQMNSLKPEDTAVYYCNADYSRLGYDYWGQGTQVTVSS	high polyreactivity
QVQLVESGGGLVQAGGSLRLSCAASGFTCTRNAMGWFRQAPGKERELVAAISSSAGSTSYADSVKGRFTISRDNAKNTDYLQMNSLKPEDTAVYYCATEGSYYSWVGKVGYRYQYHYWGQGTQVTVSS	high polyreactivity
QVQLVESGGGLVQAGGSLRLSCAASGFTFAANAMGWYRQAPGKERELVAAISSDSTYADSVKGRFTISRDNAKNTVYLQMNSLKPEDTAVYYCAKDRYIVNSPGLDYWGQGTQVTVSS	low polyreactivity
QVQLVESGGGLVQAGGSLRLSCAASGFTFAFYAMGWYRQAPGKERELVAAISWDGVTTYYADSVKGRFTISRDNAKNTVYLQMNSLKPEDTAVYYCNVQWYGGYDYWGQGTQVTVSS	low polyreactivity
QVQLVESGGGLVQAGGSLRLSCAASGFTFAFYAMGWYSPAPGKVRELVAAISWDGVTTYYADSVKGRFTISRDNAKNTVYLQMNSLKPEDTAVYYCAADYPDYAASFWPSGMYYWGQGTQVTVSS	low polyreactivity
QVQLVESGGGLVQAGGSLRLSCAASGFTFAGYAMGWYRQAPGKERELVAGIRSSGARTYYADSAKGRFTISRDNAKNTVYFKMNSLKPEDTADYYFAKTDGFYRGYGYWGQGTKVTVSS	low polyreactivity
QVQLVESGGGLVQAGGSLRLSCAASGFTFAHNAMGWYRQAPGKERELVAAITRSGGSTYYADSVKGRFTISRDNAKNTVYLQMNSLKPEDTAVYYCNAGRRGSGYGYWGQGTQVTVSS	high polyreactivity
QVQLVESGGGLVQAGGSLRLSCAASGFTFAKNAMGWYRQAPGKERELVATISRSGGSTYYADSVKGRFTISRDNAKNTVYLQMNSLKPEDTAVYYCAADRSYGVLGNEGGYWGQGTQVTVSS	high polyreactivity
QVQLVESGGGLVQAGGSLRLSCAASGFTFAKYAMGWYRQAPGKERELVAAISSSGGRTYYADSVQGRFTLSRDNAKNTDYLQMNSLKPEDTAVYYCAADFSGPFDYWGQGTQVTVSS	high polyreactivity
QVQLVESGGGLVQAGGSLRLSCAASGFTFALYAMGWYRQAPGKERELVAAISSSGGSTYYADSVKGRFTISRDNAKNTVYLQMNSLKPEDTAVYYCNATRPYRYQSHTRTPRRGYWGQGTQVTVSS	high polyreactivity
QVQLVESGGGLVQAGGSLRLSCAASGFTFANNAMGWYRQAPGKERELVAAITSSGTRTYYADSVKGRFTISRDNAKNTVYLQMNSLKPEDTAVYYCAADKPGRPSRMYYWGQGTQVTVSS	high polyreactivity
QVQLVESGGGLVQAGGSLRLSCAASGFTFAPNAMAWYRQAPGKERELVAAITWSGGSTYYADSVKGRFTISRDNAKNTVYLQMNSLKPEDTAVYYCNAVSRSTVTGQHDYWGQGTQVTVSS	high polyreactivity
QVQLVESGGGLVQAGGSLRLSCAASGFTFAPNAMGWYRPAPGKEWELVAAISSASSTYYADSVKGRFTISRDNAKYNVYLQMKSLLPEDTAVYYCNAYYWFGPGRDYWGQGTQVTVSS	high polyreactivity
QVQLVESGGGLVQAGGSLRLSCAASGFTFAPYAMGWYRQAPGKERELVAAISSNGGSTYYADSVKGRFTISRDNAKNTVYLQMISMKPEYTAVYYCAVTSIGYTRYYYWGHGTQVTVSS	high polyreactivity
QVQLVESGGGLVQAGGSLRLSCAASGFTFAQYTMGWYRQAPGKERELVAAIRVGGGSTYYADSVKGRFTISRDNAKNTVYLQMNSLKPEDTAVYYCAKRTYSRKFRGAYNYWGQGTQVTVSS	high polyreactivity
QVQLVESGGGLVQAGGSLRLSCAASGFTFARNAMGWYRPAPGKERELVAGITSRGSSTSYADSVKGRFTISRDNAKNTVYLQMNSLKPEDTAVYYSAADRYSAYLYWDEYWGQGTQVTVSS	high polyreactivity
QVQLVESGGGLVQAGGSLRLSCAASGFTFARYAMGWYRQAPGKEREFVAAIDKSGGSTYYADSVKGRFTISRDNAKNTVYLQMNSLKPEDTAVYYCAAVYSSYGRRYNSWGQGTQVTVSS	high polyreactivity
QVQLVESGGGLVQAGGSLRLSCAASGFTFARYAMGWYRQAPGKERELVAAISISGGRTYYADSVKGRFSISRDNAKNTVYLQMNSLKPEDTAVYYCNKGHVPSYDYNYWGQGTQVTVSW	high polyreactivity
